# Assays:
# [1] = test system: purified recombinant Nrf2-Neh2 domain T80A
# [2] = test system: purified recombinant Nrf2-Neh2 domain S40A
# [3] = test system: purified recombinant Nrf2-Neh2 domain (wild type)
# [4] = target: T1, GST-IFNAR1 (wild type): bacterially expressed cytoplasmic domain of IFNAR1 fused with GST (UniProt P17181)
# T1 sequence: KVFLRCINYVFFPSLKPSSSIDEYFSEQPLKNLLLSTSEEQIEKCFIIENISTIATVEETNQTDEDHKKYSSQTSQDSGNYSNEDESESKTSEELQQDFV
# [5] = target: T2, recombinant PKD2 used as substrate of Tyk2 and Src (UniProt Q9BZL6)
# T2 sequence: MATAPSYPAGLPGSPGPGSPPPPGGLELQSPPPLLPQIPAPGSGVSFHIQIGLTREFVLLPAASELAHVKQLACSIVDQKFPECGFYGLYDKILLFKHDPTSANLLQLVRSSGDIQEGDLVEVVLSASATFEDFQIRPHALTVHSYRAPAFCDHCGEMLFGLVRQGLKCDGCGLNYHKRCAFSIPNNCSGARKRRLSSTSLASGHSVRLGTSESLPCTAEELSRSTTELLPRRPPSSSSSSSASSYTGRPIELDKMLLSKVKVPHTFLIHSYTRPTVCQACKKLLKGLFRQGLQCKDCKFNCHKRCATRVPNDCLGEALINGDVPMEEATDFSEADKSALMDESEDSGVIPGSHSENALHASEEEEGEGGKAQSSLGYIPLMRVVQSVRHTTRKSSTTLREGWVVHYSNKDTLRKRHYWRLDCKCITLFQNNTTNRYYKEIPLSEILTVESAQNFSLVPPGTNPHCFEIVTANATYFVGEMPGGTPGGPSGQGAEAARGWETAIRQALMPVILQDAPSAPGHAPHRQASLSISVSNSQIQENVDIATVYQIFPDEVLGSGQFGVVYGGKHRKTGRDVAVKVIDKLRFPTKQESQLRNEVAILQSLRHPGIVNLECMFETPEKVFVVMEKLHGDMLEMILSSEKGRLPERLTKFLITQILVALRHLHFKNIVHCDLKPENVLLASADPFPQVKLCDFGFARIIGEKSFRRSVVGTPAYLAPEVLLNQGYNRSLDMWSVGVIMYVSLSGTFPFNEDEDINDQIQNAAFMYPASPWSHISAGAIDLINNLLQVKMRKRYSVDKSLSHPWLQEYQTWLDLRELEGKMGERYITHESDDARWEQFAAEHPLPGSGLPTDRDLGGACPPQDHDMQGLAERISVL
substance,measurement,setting,value
recombinant bacterially produced constitutively active ΔN-PERK,"in vitro kinase assay, autoradiography",[1],mutation of threonine 80 to alanine abrogated phosphorylation
same,"in vitro kinase assay, autoradiography",[2],"Purified recombinant PERK phosphorylated wild type Nrf2-Neh2 and a serine 40 to alanine mutant; however, mutation of threonine 80 to alanine abrogated phosphorylation"
same,"in vitro kinase assay, autoradiography",[3],"Purified recombinant PERK phosphorylated wild type Nrf2-Neh2 and a serine 40 to alanine mutant; however, mutation of threonine 80 to alanine abrogated phosphorylation"
same,in vitro kinase assay,[4],activated PERK was not capable of phosphorylating IFNAR1 in vitro
bacterially produced recombinant GST-CK1α,in vitro phosphorylation of GST-IFNAR1 on Ser535 and Ser532 (immunoblot with phospho-specific antibodies),[4],Incubation of recombinant CKla with wild type GST-IFNAR1 substrate and ATP in vitro resulted in phosphorylation of Ser535 but not of Ser532
HA-tagged Tyk2 immunopurified from cells,in vitro tyrosine phosphorylation of PKD2 (immunoblot with anti-phospho-Tyr antibody),[5],A robust increase in Tyr phosphorylation of PKD2 was seen when HA-Tyk2 was purified from IFN-a-treated cells
GST-tagged PKD2 kinase-dead K580N mutant,in vitro phosphorylation of GST-IFNAR1 on Ser535 (immunoblot with anti-pS535),[4],"Ser535 phosphorylation on GST-IFNAR1 incubated with ATP and GST-PKD2 was not evident when a catalytically deficient (kinase-dead, KD) K580N mutant was used in the reaction"
recombinant Src (purchased from Cell Signaling),in vitro tyrosine phosphorylation of PKD2 (immunoblot with anti-phospho-Tyr antibody),[5],tyrosine phosphorylation of PKD2 was easily detected when recombinant Sre protein was used as positive control
Myc-tagged human CK1δ immunopurified from 293T cells,immunokinase assay: phosphorylation of GST-IFNAR1 on Ser535,[4],"immunopurified human CK18, CK1E, and protozoan parasite L-CK1 were active against IFNAR1S535 in the immunokinase assay in vitro"
HA-tagged Leishmania major CK1 (L-CK1) immunopurified from 293T cells,immunokinase assay: phosphorylation of GST-IFNAR1 on Ser535,[4],"immunopurified human CK18, CK1E, and protozoan parasite L-CK1 were active against IFNAR1S535 in the immunokinase assay in vitro"

# From US20120014911
